Measured values: patent US20200116725

Target: T1, P220 MMP9-cleavable peptide, Biotin-GGGGGGGGGGPLGVRGKGGC
T1 chain: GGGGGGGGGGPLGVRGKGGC

B1: MMP7 (Active, Human, Recombinant, E. coli, 444270, Merck Millipore) (protein)
chain: YSLFPNSPKWTSKVVTYRIVSYTRDLPHITVDRLVSKALNMWGKEIPLHFRKVVWGTADIMIGFARGAHGDSYPFDGPGNTLAHAFAPGTGLGGDAHFDEDERWTDGSSLGINFLYAATHELGHSLGMGHSSDPNAVMYPTYGNGDPQNFKLSQDDIKGIQKLYGKRSNSRKK
For B1, the “% Cleavage (free AuNC fraction: 7-12 mL), gel filtration chromatography with catalytic activity readout; AuNC-P220-NAv + MMP7/9/13 (12 h)” value was “MMP7: 12.1%”.
